# From patent US11099176B2 (Duke University, priority 2015, dated 2021)
# B1: pgLacBP10: protein from Polymorphum gilvum (SEQ ID NO: 10, 24, 124) (protein)
# chain: MTEISRRGLLAGSVFGGVALAAPTVARAQEAVEWRMQALWDAGTTPFEFEKKFVERVGELTEGRFKITLYSAGQIVPANQAFDAVRSGAFEMMKTFDGYEAGKIPAFAFTSTIPFGFPQSDQYEAWFYELGGLDLAREAYAKGGLFYIAPTVYGEEPMHSTVKIESIADMAGKKGRFVGLASAVMADLGVAVSPLATAEVYTALEKGLIDFADRGDLTANYEAGLGEVAKFIILPGVHQPTTATSYVANQAAYQKLPDGFKAALAVAAREISGSLRQHILVQDMEVLTKYKDQGVEVVRLDAADIAAARAKAVESWEKATKGDELATRVLKGQVDFMTSLGLL
# B2: psLacBP11: protein from Pseudomonas stuztzeri (SEQ ID NO: 11, 25, 125) (protein)
# chain: MKRRHLFGAAALLATLALAGCKDEQSQAPNQQAAGEPAKTYHWKMVTAWPKNYPGLGTSAERLAERVNAMSGGRLTIKVYAAGELVPALEVFDAVSRGTAELGHGASYYWKGKVPTAQFFTSVPFGLSTSEMNAWLSKGGGQAFWDEAYAPFGVKPLVIGNTGMQMGGWYNKEINSLTDLKGLKIRMPGLGGEVLSRLGATTVNLPGGEVFTALQTGAIDATDWVSPYNDLAFGLHKAARYYYYPGWQEPQAVLELLINQKAFDSLPADLQAIVTEASLAASRDMHDDYVYNNALALEQLKQQGTELKRFPDEVLAAMREQSDLILGELAAQSELNGRIWASMKAFQAQVEPMHEISEKELYNWR
# B3: msLacBP6: lactate-binding protein from Marinobacter sp. (SEQ ID NO: 6, 20, 120) (protein)
# chain: MTDITCKIETKGSARRRGFLKTLAVSAAISATLLASSVQAATTWKIQSVWDAGTVGYDLFKEWCDGMEEKTGGELKFTCFPAKAVAADNNGLFDAVRNGVLQGMNPFTLYWSGKIPASVFLSSYPAGPDQPHQWDTMFYSLGMLEKTREIYKKFGLFYVGPIQHDANIIHSKQPINSLDDLKGLKMRLPGGMVAEVFAKFGVAAVSLPGSDIFPALEKGTIDAADYVGPAVNWELGFSQVTKYILMGPPGIMSVYQPVDLMDLTVNLRAWNALDPKLQQIVEDEVRIYSQKHYLAIQKRNIEAMKKFEAAGTTVTRLSQEDLQEFRRAAIPIWYSWANKDEDAREIFDMQLEYMMNDTVGYITEDDIKGMN
# B4: fsLacBP13: protein from Flexistipes sinusarabici (SEQ ID NO: 13, 27, 127) (protein, listed as Flexistipes sinusarabici)
# chain: MGMMKKLLYSLLIILLVASAGFTAEKKIRWKLAMTWGPTLHPLSDTAEHMAEIVKELSDGNFVINIDASNVHKAPFGIFDMVKLGQYEMGHTASYYYKGKNIAFLPLTTMPFGMTAPEQYAWFYYGGGLELMQEAYTKHGMLAFPGGNTGNQMGGWFTKEINSLDDLKGLKMRIPGFAGQIMSKLGVTVTNIPPGELYTALERGTVDAVEWTGPGMDINMGFHKIAKYYYTGWHEPGSEVEFLINEKEYNKLPEKYKKILKIAMKTAAYDMYIQSYEMNAEAWQQMKEKYPDIKVKVFPEEVLKEMKTAYDNLVASYEKESPMFKKIMESKRAYLDKVRDWTHISDYLYLKSTSESNLN
# B5: adLacBP9: protein from Anaeromyxobacter dehalogenans (SEQ ID NO: 9, 23, 123) (protein)
# chain: MKKTTSRSQPDTAPKASRRSFLKKAALGAAGVAAGAAAPTIHVAQAPITLRFQSTWPQKDIFHEFALDYAKKVNEMSGGRLKIEVLAAGSVVKAFDLLDAVSKGTLDGGHGVVAYWYGKNTALALWGSGPAFGMDPNMVLAWHHYGGGRQLLEEIYRSLNLDVVSLMYGPMPTQPLGWFKQKPIAKPDDMKGLKFRTVGLSIDIFNGLGAAVNALPGAEIVPAMDRGLLDAAEFNNASSDRVLGFPDVSKICMLQSFHQCSEQFEILFNGKRFQALPADLKSIISIAAQAASADMSWKAIDRYSSDYFEMRDKQGVKFYSTRPEILKRQLEIWDQVMEKRAAENPTFKKVLESQRRFAQRAARWQNDTNVDFKMAYNHFFGGKKKAT
# B6: rsLacBP12: protein from Rhodobacter sphaeroides (SEQ ID NO: 12, 26, 126) (protein)
# chain: MTAFEKKAAYSRRSFLRTGALAGGAAAGSVLAAPAVLAQAPLVMKMQTSWPASDIWMDFAREYVTRVEEMSGGRIKVDLLPAGAVVGAFQVMDAVHDGVIDASHSVSAYWYGKSKAASFFGTGPVFGGSATTMLGWFYQGGGQDLYRELTQDILGMNIVGFYGFPMPAQPFGWFKTEVNGVADIQGFKYRTVGLAADLLQAMGMSVAQLPGGEIVPAMERGVIDAFEFNNPSSDMRFGAQDVAKNYYLSSYHQASESFEYTFNRDFYEDLDPDLQAILKYAVEAASTSNTALALRQYSADLATLAAENGVAVHRTPKDILSGQLEAWDKLIVDLEADEFFKKVLDSQRAWVEQVSYYELMNAADLGLAYEHHFPGKLKL
# modifications: Rhodobacter sphaeroides
# B7: ttLacBP1: lactate-binding protein from Thermus thermophilus, seed sequence (SEQ ID NO: 1, 15, 115) (protein, listed as Thermus thermophilus)
# chain: MKRVSRRAFLRRLGVGVAATAAFSPLAVAQARRYRWRIQTAWDAGTVGYSLFQKFTERVKELTDGQLEVQPFPAGAVVGTFDMFDAVKTGVLDGMNPFTLYWAGRMPVTAFLSSYALGLDRPDQWETWFYSLGGLDIARRAFAEQGLFYVGPVQHDLNIIHSKKPIRRFEDFKGVKLRVPGGMIAEVFAAAGASTVLLPGGEVYPALERGVIDAADFVGPAVNYNLGFHQVAKYIIMGPPETPAIHQPVDLMDFTINLNRWRSLPKPLQERFIAAVHEYSWIHYAGIQKANLEAWPKYRQAGVEVIRLSNEDVRKFRRLAIPIWFKWAKMDKYSREAFASQLEYMKGIGYVTDEELKGLSL
# B8: tsLacBP7: lactate-binding protein from Thermus sp. (SEQ ID NO: 7, 21, 121) (protein)
# chain: MQAPRFRWRIQSAWDAGTVGYTLFQRFAERVKELTDGQIEIQTFPAGAVVGTFDMFDAVKTGVLDGMHPFTLYWAGRMPVTAFLSSYPLGLDRPDQWETWYYALGGLDLARRAFEEQGLFYVGPVQHDYNLIHSKKPIKSFEDFKGVKLRVPGGMIADVFSAAGAATVLLPGGEVYPALERGVIDAADFVGPAVNYNLGFHQVTKYIIMGPPETPAIHQPVDLADITLNLSRWRAVPKNLQERFEAAVHEWSWIHYAGIQKANLETWPKYKAAGVQIIRLTTVDVRKFRRVAIPIWFKWAKQDKYAREAFASQLEYMKALGYVTDADVRGLSL
# modifications: tsLacBP7 (with signal peptide replaced with M)
# B9: Y187C (conjugate)
# chain: MATTWKIQSVWDAGTVGYDLFKEWCDGMEEKTGGELKFTCFPAKAVAADNNGLFDAVRNGVLQGMNPFTLYWSGKIPASVFLSSYPAGPDQPHQWDTMFYSLGMLEKTREIYKKFGLFYVGPIQHDANIIHSKQPINSLDDLKGLKMRLPGGMVAEVFAKFGVAAVSLPGSDIFPALEKGTIDAADCVGPAVNWELGFSQVTKYILMGPPGIMSVYQPVDLMDLTVNLRAWNALDPKLQQIVEDEVRIYSQKHYLAIQKRNIEAMKKFEAAGTTVTRLSQEDLQEFRRAAIPIWYSWANKDEDAREIFDMQLEYMMNDTVGYITEDDIKGMN
# modifications: conjugated fluorophore; msLacBP6 (with signal peptide replaced with M)
# Experiments:
# [1] = Thermal stability by SYPRO Orange thermal melt in a Roche LightCycler; assay type: physicochemical; conditions: for Thermostability apoTm: ligand-free protein, SYPRO Orange, Roche LightCycler
# Procedure: The lactate-binding properties of these proteins were determined experimentally (Table 3). These experiments comprise four successive steps: • 1. Synthetic gene construction. The amino acid sequence of the homology leads are back translated into DNA sequences. […] The predicted gene sequences are assembled de novo from synthetic oligonucleotides. • 2. Heterologous protein expression of the homologues in E. coli.
# [2] = Lactate-mediated fluorescence emission response of fluorescent conjugates (cysteine and fluorophore scan); assay type: biochemical; set-up: key to Response Acrylodan Shape / Response Badan Shape / Response Badan Intensity: m, monochromatic; d, dichromatic (i.e. spectral shape changes); 0, no change
# Source text: Semi-synthetic FRSs can be engineered by site-specifically attaching thiol-reactive, environmentally sensitive fluorophores that respond to ligand-mediated conformational changes. Identification of FRS candidates that can be used for sensing applications comprises three steps: • 1. Cysteine scan. Mutant lactate-binding proteins containing single cysteines are constructed for site-specific attachment of thiol-reactive fluorophores. […] Candidate positions fall into three classes: endosteric, replacing a residue that contacts the ligand directly; peristeric, located at the rim of the binding site; allosteric (Marvin et al., 1997, Proc Natl Acad Sci USA, 94, 4366-71; Marvin, 1998, J Am Chem Soc, 120, 7-11), located outside the binding site at sites that undergo local structural changes in concert with the hinge-bending motion. • 2. Fluorophore screening. Thiol-reactive, environmentally sensitive fluorophores are attached to each cysteine mutant prepared in step 1. • 3. Evaluation of the lactate-mediated change of all the fluorescent conjugates prepared in step 2. Responses to ligand binding in which there is both a change in fluorescence emission intensity and spectral shape are essential for chemometric applications, because such changes enable ratiometric measurements. Changes in spectral shape typically are accompanied by a shift in the wavelength of the emission intensity maxima. Three classes of fluorescent responses are possible: • i. No response. • ii. Monochromatic response (emission intensity increases or decreases without a change in spectral shape) • iii. […] Hypsochromatic: emission intensity shifts to shorter wavelengths upon binding ligand (“blue shift”). • ii. Bathochromatic: emission intensity shifts to longer wavelengths upon binding ligand (“red shift”). • 4.
# We constructed seventeen single cysteine mutants in msLacBP6, exploring one endosteric, fourteen peristeric, and two allosteric positions. Two dominant electronic transitions give rise to fluorescence emission in these fluorophores with maxima in the blue (<500 nm) and green (>500 nm) regions, respectively.
# [3] = Acrylodan conjugate of msLacBP6 cysteine mutant, response to lactate
# [4] = Badan conjugate of msLacBP6 cysteine mutant, response to lactate
Molecule,Thermostability apoTm [1],also measured
B1,49 °C,–
B2,60 °C,–
B3,70 °C,mid-point denaturation temperature [1]: 70 °C
B4,46 °C,–
B5,48 °C,–
B6,48 °C,–
B7,>100 °C,–
B8,>100 °C,fluorescence response to lactate ([2]; in words): strong dichromatic responses
B9,–,"Response Acrylodan Intensity [2, 3]: +; Response Acrylodan Shape [2, 3]: d^f; Response Badan Intensity [2, 4]: 0; Response Badan Shape [2, 4]: d^f"
